In patent US20210115135A1 (ZHEJIANG SHIMAI PHARMACEUTICAL, published 2021):
Where a chain is given by its changes, count along the chain named. Values joined by “and” are separate entries in the source; they are usually repeats but may differ in a detail not shown here. Equal entries are not always repeated.

T1: recombinant human LAG3 (Sino Biological Inc.) (human, UniProt P18627 23-450)
T1 construct: Bought recombinant protein; also called CD223; biotinylated recombinant human LAG3
T1 sequence (looked up): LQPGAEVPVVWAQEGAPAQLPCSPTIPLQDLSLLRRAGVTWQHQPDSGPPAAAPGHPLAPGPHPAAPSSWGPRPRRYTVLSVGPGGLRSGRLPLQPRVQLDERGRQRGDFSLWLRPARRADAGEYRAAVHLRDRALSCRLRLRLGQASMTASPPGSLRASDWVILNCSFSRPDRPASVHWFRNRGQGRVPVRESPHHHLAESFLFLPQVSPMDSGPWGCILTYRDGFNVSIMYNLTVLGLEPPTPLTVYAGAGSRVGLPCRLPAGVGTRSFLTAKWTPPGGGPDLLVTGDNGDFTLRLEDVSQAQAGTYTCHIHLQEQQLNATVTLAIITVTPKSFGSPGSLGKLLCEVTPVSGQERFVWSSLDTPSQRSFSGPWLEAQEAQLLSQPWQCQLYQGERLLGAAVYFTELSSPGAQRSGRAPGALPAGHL

B1: DNV1 Fab (Fab, V domains shown)
VH: QVQLQQWGAGLLKPSETLSLTCAVYGGSFSGYYWSWIRQPPGKGLEWIGEINHSGSTNYNPSLKSRVTISVDTSKNQFSLKLSSVTAADTAVYYCARITPRFDAFDIWGQGTMVTVSS
VL: QSVLTQPPSVSAAPGRKVTISCSGSSSNIGTNSVSWYQQFPGTAPKLLIYDNNKRLSRIPDRFSGSKSGTSASLAISGLQSEDEADYYCAAWDDSLTGYVFGTGTKVTVL
notes: Human Fab from a phage library, hexahistidine-tagged, detected through a FLAG tag, made in E. coli HB2151
B2: DNV3 Fab (Fab, V domains shown)
VH: EVQLVQSGAEVKKPGASVKVSCKASGYTFTSYGISWVRQAPGQGLEWMGWISAYNGNTNYAQKLQGRVTMTTDTSTSTAYMELRSLRSDDTAVYYCARDSSSWWVDAFDIWGQGTMVTVSS
VL: QSVLTQPPSVSAAPGQKVTISCSGSTSNIAINYVSWYQQVPGTVPKLLIYDDDKRPSGIPDRFSGSKSGTSATLDISGLQTGDEAHYYCGVWDNSLLAVLFGGGTSLTVL
notes: as for B1
B3: DNV3.14 Fab (Fab, V domains shown)
VH: B2 VH
VL: PYVLTQPPSVSGAPRQRVTISCSGGSSNIASNAVNWYQQFPGKAPKLLVYYDDLLPSGVSDRFSGSKTGTSASLAISALQSEDEADYFCAAWDDSLNGVLFGGGTKLTVL
notes: Light-chain-shuffled Fab variant of DNV3
B4: DNV3.4 Fab (Fab, V domains shown)
VH: B2 VH
VL: SYVLTQPPSTSAAPGQTVTILCFGGGSNLQSNTVNWYRHVSGSAPKLLIHSDDERASGVSPRLSGSKSGGSASLILRGLQPEDEGDYYCAAWDDRLDAYVFGTGTKVTVL
notes: as for B3
B5: DNV3.7 Fab (Fab, V domains shown)
VH: B2 VH
VL: SYELTQPPSVSEAPRQRVTISCSGSSSNIGSNAVSWYQQVPRKAPKLLVYYDDLLPSGVSDRFSGSKSGTSASLAIRGLQSEDEADYYCAAWDDSLNAFVFGTGTKVTVL
notes: as for B3
B6: DNV3.8 Fab (Fab, V domains shown)
VH: B2 VH
VL: SYELTQPPSVSEAPRQRATISCSGSRSNIGNNAVSWYQRLPGQAPKLLIYYDTFLPSGVSDRFSGSKSGTSASLTISGLQSDDEADYYCAAWDDSLNGVLFGGGTKLTVQ
notes: as for B3
B7: DNV3.1 Fab (Fab, V domains shown)
VH: B2 VH
VL: LPVLTQPPSASGTPGQRVTISCSGSSSNIGGNSVNWYQQLPGTAPKLLIYSDNQRPSGVPDRFSGSKSGTSASLAISGLQSEEEADYYCAAWDDSLNAYVFGPGTKVTVL
B8: DNV3.2 Fab (Fab, V domains shown)
VH: B2 VH
VL: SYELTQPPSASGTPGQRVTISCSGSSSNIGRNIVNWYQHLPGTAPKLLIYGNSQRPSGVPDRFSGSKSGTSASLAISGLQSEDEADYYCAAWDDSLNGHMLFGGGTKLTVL
notes: as for B3
B9: DNV3.3 Fab (Fab, V domains shown)
VH: B2 VH
VL: QSVLTQPPSASGTPGQRVTISCSGSSSNIGNNAVNWYQQLPGKAPKLLIYYDDLLPSGVSDRFSGSKSGTSASLAISGLRSEDEGDYFCAAWDDSLSGQVLFGGGTKLTVL
notes: as for B3
B10: DNV3.12 Fab (Fab, V domains shown)
VH: B2 VH
VL: SYVLTQPPSASGTPGQRVTISCSGSSSNIGSNIVNWYQHLPGTAPKLLIYGNSQRPSGVSDRFSGSKSGTSASLAISGLQSEDEANYYCAVWDDSLDGHLLFGGGTKLTVL
notes: as for B3
B11: DNV3.16 Fab (Fab, V domains shown)
VH: B2 VH
VL: B3 VL with P1S, V10A, A13T, R15G
notes: as for B3
B12: DNV3.5 Fab (Fab, V domains shown)
VH: B2 VH
VL: B7 VL with L1Q, P2S, S26T, S33T, D52S, Q54R, K67T, E83D, N97I, P103T
notes: as for B3
B13: DNV3.9 Fab (Fab, V domains shown)
VH: B2 VH
VL: B3 VL with P1L, Y2P
notes: as for B3

Biological target: T1, recombinant human LAG3 (Sino Biological …)
Assay: ELISA, recombinant human LAG3 coated, Fab detected by anti-FLAG-HRP
Description: The hexahistidine-tagged antibodies were expressed in E. coli strain HB2151 and purified from the soluble fraction of periplasm by using the Ni-NTA resin. 7 monoclonal antibodies against human LAG3 were selected by panning a large phage-display library of naïve human antibodies in the format of antigen-binding fragment (Fab). Then ELISA was performed according to standard protocols. Briefly, recombinant human LAG3 (Sino Biological Inc.) was coated on Corning EIA/RIA high-binding 96-well plates (Corning Inc.) at 50 ng per well overnight at 4° C. and blocked with 3% nonfat milk in PBS (pH7.4). Fivefold serially diluted antibodies were added and incubated at room temperature for 2 h. The plates were washed with PBS containing 0.05% Tween 20. Bound antibodies were detected by HRP-conjugated anti-FLAG tag antibody (Sigma-Aldrich). The assay was developed at room temperature with TMB substrate (Sigma-Aldrich) and monitored at 450 nm with a microplate reader.

| Binder | EC50 | binding result |
| --- | --- | --- |
| B1 | ≤ 10 nM |  |
| B2 | 6 nM and ≤ 10 nM |  |
| B3 |  | binds |
| B4 |  | binds |
| B5 |  | binds |
| B6 |  | binds |
| B7 |  | binds |
| B8 |  | binds |
| B9 |  | binds |
| B10 |  | binds |
| B11 |  | binds |
| B12 |  | binds |
| B13 |  | binds |
